According to PMC9895041, “Molecular evolutionary insight of structural zinc atom in yeast xylitol dehydrogenases and its application in bioethanol production by lignocellulosic biomass” (Scientific Reports, 2023):
Where a chain is given by its changes, count along the chain named. Numbers in names are those of the source.

B1: ScXDH (Saccharomyces cerevisiae S288C) (protein)
chain: MTDLTTQEAIVLERPGKITLTNVSIPKISDPNEVIIQIKATGICGSDIHYYTHGRIANYVVESPMVLGHESSGIVALIGENVKTLKVGDRVALEPGIPDRFSPEMKEGRYNLDPNLKFAATPPFDGTLTKYYKTMKDFVYKLPDDVSFEEGALIEPLSVAIHANKLAKIKFGARCVVFGAGPIGLLAGKVASVFGAADVVFVDLLENKLETARQFGATHIVNSGDLPHGVTVDSVIKKAIGKKGADVVFECSGAEPCVRAGIEVCKAGGTIVQVGMGQEEIQFPISIIPTKELTFQGCFRYCQGDYSDSIELVSSRKLSLKPFITHRYSFKDAVEAFEETSHHPLNNIKTIIEGPE
B2: ScXDH (Saccharomyces cerevisiae S288C; D113C/D99C/M105C/S102C) (protein)
chain: B1 chain with D99C, S102C, M105C, D113C
B3: PsXDHC4 mutant (xylitol dehydrogenase from Pichia stipitis, S96C/S99C/Y102C) (enzyme)
chain: TANPSLVLNKIDDISFETYDAPEISEPTDVLVQVKKTGICGSDIHFYAHGRIGNFVLTKPMVLGHESAGTVVQVGKGVTSLKVGDNVAIEPGIPCRFCDECKSGHYNLCPHMAFAATPNSKEGEPNPPGTLCKYFKSPEDFLVKLPDHVSLELGALVEPLSVGVHASKLGSVAFGDYVAVFGAGPVGLLAAAVAKTFGAKGVIVVDIFDNKLKMAKDIGAATHTFNSKTGGSEELIKAFGGNVPNVVLECTGAEPCIKLGVDAIAPGGRFVQVGNAAGPVSFPITVFAMKELTLFGSFRYGFNDYKTAVGIFDTNYQNGRENAPIDFEQLITHRYKFKDAIEAYDLVRAGKGAVKCLIDGPE
notes: xylitol dehydrogenase (XDH) of Pichia stipitis (Scheffersomyces stipitis), encoded by the PICST_86924 gene, cloned into pQE-81L; the model holds Thr2-Pro362 (Ser121-Gly124 not built); source: E. coli DH5α, purified (Ni-NTA, Superdex 200)
B4: SpXDH C97S mutant (enzyme, Schizosaccharomyces pombe, UniProt P36624 1-360, looked up)
chain: MAPAEKAFVLRKKMDTAIEDRPGQTLTDDHQVKVAIKATGICGSDVHYWKEGGIGDFILKKPMILGHESAGVVVEVGKGVSSLKPGDPVAVEPGCVSRLCDYCRSGRYNLCPHMEFAATPPYDGTLRTYYITTEDFCTKLPKQISVEEGALFEPMSVAVHAMTRGNLKCGSRVLVMGCGTVGLLMMAVAKAYGAIDIVAVDASPSRVEFAQKYVGAKPFTPIAAKENESLPDYAQRYKQAIIEKYGEFDFAVDATGVGICIHTAVLALKRGGTFVQAGNGKPVIDFPINHIINYEINVLGSFRYAHGCYKQSLFLVSNGLVDVKPLITHRFAFKDALKAYETVASGEEGVLKVIIGGPDA
notes: SPBC1773.05c protein of S. pombe (SpXDH), cloned into pQE-81L; source: E. coli DH5α, purified (Ni-NTA)
B5: SpXDH C103D mutant (enzyme, Schizosaccharomyces pombe, UniProt P36624 1-360, looked up)
chain: B4 chain with S97C, C103D
notes: as for B4
B6: SpXDH (Schizosaccharomyces pombe 972h-; C100D) (protein)
chain: B4 chain with S97C, C100D
B7: SpXDH C100S mutant (enzyme, Schizosaccharomyces pombe, UniProt P36624 1-360, looked up)
chain: B4 chain with S97C, C100S
notes: as for B4
B8: SpXDH (Schizosaccharomyces pombe 972h-; C111D) (protein)
chain: B4 chain with S97C, C111D
B9: SpXDH C111S mutant (enzyme, Schizosaccharomyces pombe, UniProt P36624 1-360, looked up)
chain: B4 chain with S97C, C111S
notes: as for B4
B10: SpXDH C103S mutant (enzyme, Schizosaccharomyces pombe, UniProt P36624 1-360, looked up)
chain: B4 chain with S97C, C103S
notes: as for B4
B11: SpXDH wild type (xylitol dehydrogenase, SPBC1773.05c protein from Schizosaccharomyces pombe) (enzyme, UniProt P36624 1-360, looked up)
chain: B4 chain with S97C
notes: cloned into pQE-81L; also called SpXDHWT; WT; source: E. coli DH5α, purified (Ni-NTA)
B12: SpXDH C97D mutant (enzyme, Schizosaccharomyces pombe, UniProt P36624 1-360, looked up)
chain: B4 chain with S97D
notes: as for B4
B13: PsXDH (Scheffersomyces stipitis CBS 6054) (protein)
chain: MTANPSLVLNKIDDISFETYDAPEISEPTDVLVQVKKTGICGSDIHFYAHGRIGNFVLTKPMVLGHESAGTVVQVGKGVTSLKVGDNVAIEPGIPSRFSDEYKSGHYNLCPHMAFAATPNSKEGEPNPPGTLCKYFKSPEDFLVKLPDHVSLELGALVEPLSVGVHASKLGSVAFGDYVAVFGAGPVGLLAAAVAKTFGAKGVIVVDIFDNKLKMAKDIGAATHTFNSKTGGSEELIKAFGGNVPNVVLECTGAEPCIKLGVDAIAPGGRFVQVGNAAGPVSFPITVFAMKELTLFGSFRYGFNDYKTAVGIFDTNYQNGRENAPIDFEQLITHRYKFKDAIEAYDLVRAGKGAVKCLIDGPE
notes: full length, N-terminal His6 tag (pQE-81L), E. coli DH5alpha; homotetramer; 7Y9P is the apo C4 mutant
B14: PsXDH (Scheffersomyces stipitis CBS 6054; S96D/S99C/Y102C) (protein)
chain: B13 chain with S96D, S99C, Y102C
notes: as for B13
B15: PsXDH (Scheffersomyces stipitis CBS 6054; S96C/S99C/Y102C) (protein)
chain: B13 chain with S96C, S99C, Y102C
notes: as for B13

What was measured:
purified protein [1] = substrate: OC[C@@H](O)[C@H](O)[C@@H](O)CO; experiment: purified protein; settings: 1.5 mM NAD+, 50 mM Tris-HCl pH 8.0, 30 °C
[2] = biological target: the molecule itself; experiment: SEC; analytical size-exclusion chromatography of PsXDHC4 in solution
[3] = biological target: the molecule itself; experiment: SEC; gel filtration of the sample purified by Ni-NTA (HiLoad 16/600 Superdex 200 pg, 20 mM Tris-HCl pH 8.0, 150 mM NaCl)
purified protein [4] = substrate: OC[C@@H](O)[C@H](O)[C@@H](O)CO; experiment: purified protein; type: biochemical, Scheffersomyces stipitis; settings: […] NAD+, 50 mM Tris-HCl pH 8.0, 30 °C

| Protein | Km (purified protein [1]; 1-10 mM xylitol) | kcat (purified protein [1]; 1-10 mM xylitol) | kcat/Km (purified protein [1]; 1-10 mM xylitol) | stoichiometry N [3] | other results |
| --- | --- | --- | --- | --- | --- |
| B1 | – | – | – | – | Km (purified protein [1]; 0.1-1 mM xylitol): 1.82 ± 0.42 mM; kcat (purified protein [1]; 0.1-1 mM xylitol): 0.0182 s⁻¹; kcat/Km (purified protein [1]; 0.1-1 mM xylitol): 10.1 M⁻¹ s⁻¹ |
| B2 | – | – | – | – | Km (purified protein [1]; 0.1-1 mM xylitol): 5.44 ± 0.78 mM; kcat (purified protein [1]; 0.1-1 mM xylitol): 0.402 s⁻¹; kcat/Km (purified protein [1]; 0.1-1 mM xylitol): 74 M⁻¹ s⁻¹ |
| B3 | – | – | – | – | stoichiometry N [2]: 4 |
| B4 | 12.3 ± 2.3 mM | 6.03 s⁻¹ | 493 M⁻¹ s⁻¹ | 4 | – |
| B5 | 10.5 ± 0.7 mM | 7.82 s⁻¹ | 743 M⁻¹ s⁻¹ | 4 | – |
| B6 | 8.26 ± 0.89 mM | 2.17 s⁻¹ | 263 M⁻¹ s⁻¹ | – | – |
| B7 | 16.2 ± 5.0 mM | 0.202 s⁻¹ | 12.4 M⁻¹ s⁻¹ | 4 | – |
| B8 | 9.76 ± 0.15 mM | 3.6 s⁻¹ | 368 M⁻¹ s⁻¹ | – | – |
| B9 | – | – | – | 4 | – |
| B10 | – | – | – | 4 | Km (purified protein [1]; xylitol range not marked): 9.01 ± 0.74 mM; kcat (purified protein [1]; xylitol range not marked): 2.08 s⁻¹; kcat/Km (purified protein [1]; xylitol range not marked): 233 M⁻¹ s⁻¹ |
| B11 | 6.10 ± 0.34 mM | 6.95 s⁻¹ | 1140 M⁻¹ s⁻¹ | 4 | – |
| B12 | 10.4 ± 0.1 mM | 6.78 s⁻¹ | 650 M⁻¹ s⁻¹ | 4 | – |
| B13 | – | – | – | – | Km (purified protein [4]; 0.1-1 mM xylitol): 2.05 ± 0.20 mM; kcat (purified protein [4]; 0.1-1 mM xylitol): 0.63 ± 0.0583 s⁻¹; kcat/Km (purified protein [4]; 0.1-1 mM xylitol): 307 ± 3.33 M⁻¹ s⁻¹ |
| B14 | – | – | – | – | Km (purified protein [4]; 1-10 mM xylitol): 11.0 ± 1.2 mM; kcat (purified protein [4]; 1-10 mM xylitol): 9.17 ± 0.633 s⁻¹; kcat/Km (purified protein [4]; 1-10 mM xylitol): 837 ± 28.3 M⁻¹ s⁻¹ |
| B15 | – | – | – | – | Km (purified protein [4]; 0.1-1 mM xylitol): 4.94 ± 1.62 mM; kcat (purified protein [4]; 0.1-1 mM xylitol): 6.4 ± 1.85 s⁻¹; kcat/Km (purified protein [4]; 0.1-1 mM xylitol): 1320 ± 66.7 M⁻¹ s⁻¹ |
